Positions count from the first letter of the chain named.
T1: human IL-1RAcP on 293T/17-FR cells (human, UniProt Q9NPH3 21-570)
T1 sequence (looked up): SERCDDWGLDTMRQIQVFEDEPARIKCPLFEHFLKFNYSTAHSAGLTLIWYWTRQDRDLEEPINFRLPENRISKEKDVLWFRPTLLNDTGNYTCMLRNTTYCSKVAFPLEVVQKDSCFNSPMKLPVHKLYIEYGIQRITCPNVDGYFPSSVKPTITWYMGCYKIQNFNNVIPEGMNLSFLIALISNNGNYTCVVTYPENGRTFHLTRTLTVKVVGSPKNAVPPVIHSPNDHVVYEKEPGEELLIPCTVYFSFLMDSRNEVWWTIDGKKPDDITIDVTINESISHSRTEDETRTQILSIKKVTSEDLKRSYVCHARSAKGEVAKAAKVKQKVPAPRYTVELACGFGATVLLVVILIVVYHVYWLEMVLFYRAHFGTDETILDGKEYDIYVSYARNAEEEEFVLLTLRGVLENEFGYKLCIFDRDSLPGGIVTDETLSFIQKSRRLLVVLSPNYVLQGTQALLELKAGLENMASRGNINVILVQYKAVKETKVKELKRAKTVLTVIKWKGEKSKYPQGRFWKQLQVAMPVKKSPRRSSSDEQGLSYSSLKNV

T2: rhIL-1RAcP/Fc Chimera (human, UniProt Q9NPH3 21-359)
T2 construct: also called P013_03; P013-03
T2 sequence (looked up): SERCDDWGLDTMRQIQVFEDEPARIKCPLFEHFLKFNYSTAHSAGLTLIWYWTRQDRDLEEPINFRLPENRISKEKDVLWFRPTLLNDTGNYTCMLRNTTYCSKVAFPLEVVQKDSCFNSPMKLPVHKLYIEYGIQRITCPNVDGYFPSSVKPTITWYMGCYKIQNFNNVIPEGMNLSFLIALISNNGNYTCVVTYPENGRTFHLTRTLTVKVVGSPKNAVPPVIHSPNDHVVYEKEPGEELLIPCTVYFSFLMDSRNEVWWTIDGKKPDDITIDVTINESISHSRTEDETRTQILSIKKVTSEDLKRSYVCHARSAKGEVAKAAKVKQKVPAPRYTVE

T3: mIL1RAcP-Fc (murine, UniProt Q61730 21-359)
T3 construct: also called P013_04; P013-04
T3 sequence (looked up): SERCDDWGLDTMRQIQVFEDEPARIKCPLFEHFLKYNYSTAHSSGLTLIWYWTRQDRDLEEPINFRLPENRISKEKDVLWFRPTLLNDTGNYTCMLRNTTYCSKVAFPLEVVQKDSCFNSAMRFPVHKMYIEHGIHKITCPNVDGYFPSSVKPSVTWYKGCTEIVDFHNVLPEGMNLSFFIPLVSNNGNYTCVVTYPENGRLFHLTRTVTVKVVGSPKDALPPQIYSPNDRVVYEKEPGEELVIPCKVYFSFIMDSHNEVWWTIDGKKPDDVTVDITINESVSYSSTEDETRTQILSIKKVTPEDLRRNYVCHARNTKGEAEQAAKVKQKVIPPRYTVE

B1: P013.S.01.B.F04 (antibody, V domains shown)
VH: LEQSGGGAEGGLVKPGGSLELCCKASGFSLSTSYWRCWVRQAPGKGLEWIGCIYAGSSDATYYANWVNGRFTLSRDIDQSTGCLQLNSLTAADTAMYYCASGVGFGYFNLWGQGTLVTVSS
VL: ALVMTQTPSPVSAAVGGTVTINCQASEDIYSNLAWFQQKPGQPPKLLIYDASTLASGVPSRFSGSGSGTEFTLTISGLQSDDAATYYCLGVYTHISADNAFGGGTEVVVK
notes: rabbit monoclonal antibody; also called P013.A.00133.A12
B2: P013.S.01.B.A04 (antibody, V domains shown)
VH: QEQLEESGGGLVKPGGTLTLTCKASGIDFSSYYYMCWVRQAPGKGLEWIACIFIGYGDVTWYASWAKGRFTISKASSTTVTLQMTSLTAADTATYFCARALGSSGYRVNLWGPGTLVTVSS
VL: ALVMTQTPSSVSAAVGGTVTINCQASENIYSSLAWYQQKPGQPPKLLIYDASDLASGVPSRFKGSGSGKEFTLTISDLESDDAATYYCQQGYYSGGTDNDVFGGGTEVVVK
notes: rabbit monoclonal antibody; also called P013.A.00085.C03
B3: P013.S.01.B.G04 (antibody, V domains shown)
VH: QSVEESGGRLVTPGTPLTLTCTVSGFSLSVYAMGWFRQAPGKGLEWIGDIYIASDGTWYANWAKGRFTISKTSTTVDLKITSPTTEDTATYFCAREIDAGYVGYGFNLWGQGTLVTVSS
VL: AQALTQTPSPVSAAVGGTVTINCQSSQSVYSDYLGWYQQKPGQPPKLLIYWASKLETGVPSRFKGSGSGTQFTLTISGVQSDDAATYYCQATYYGSGWYRAFGGGTEVVVK
notes: rabbit monoclonal antibody; also called P013.A.00013.G06
B4: P013.S.01.B.B05 (antibody, V domains shown)
VH: QSLEESGGRLVTPGTPLTLTCTASGFSLSSYYMSWVRQAPGKGLEWVGIISGSASTYYATWAKGRFTISKTSTTVDLKIASPTTEDTATYFCARTHYAAVAGYGYASRLDLWGQGTLVTVSS
VL: AIEMTQSPPSLSASVGETVRIRCLASEDIYSGISWYQQKPGKPPTLLIYAASNLESGVPPRFSGSGSGTDYTLTIGGVQAEDAATYYCLGGYSYSNTGPTFGAGTKVEIK
notes: rabbit monoclonal antibody; also called P013.A.00030.D07
B5: P013.S.01.B.G03 (antibody, V domains shown)
VH: QEQLVESGGGLVQPEGSLTLTCKASGFDFSSNYYMCWVRQAPGKGLELIACIYTNSGNTWSASWAKGRFTISKTSSTTVTLQMTSLTAADTATYFCARDLNYPDTSNLWGQGTLVTVSS
VL: DIVMTQTPASVEAAVGGTVTIKCQASQSIGYYLAWYQQKPGQPPKLLISRASTLASGVPSRFKGSGSGTQFTLTISDLESADVATYYCQSYYNSDSDAFGGGTEVVVK
notes: rabbit monoclonal antibody; also called P013.A.00030.C03
B6: P013.S.01.B.A03 (antibody, V domains shown)
VH: QEQLEESGGDLVQPEGSLTVTCTASGFSFSFGYYMCWVRQAPGKGLEWIACIYGDSSDTLYANWAKGRFTVSKTSSTTVTLQMTSLTAADTATYFCARYPGGSYYNLWGPGTRVTVSS
VL: ALVMTQTPASVEAAVGGTVTIKCQASQTISINLAWYQQKPGQRPKLLIYYASTLASGVPSRFSGSGSGTEFTLTISGVQSDDAATYYCQQGYTEDNIDNTFGGGTEVVVK
notes: rabbit monoclonal antibody; also called P013.A.00088.A07
B7: P013.S.02.B.G03 (antibody, V domains shown)
VH: QSVEESGGRLVTPGTPLTLTCTVSGFSLSSYGMIWVRQAPGEGLEWIGFIGRGGATWYASWVKGRFTISKTSTTVDLKITSPTASDTATYFCARDGDSSDYYAFNLWGQGTLVTVSS
VL: DVVMTQTPASVSEPVGGTVTIKCQASQNIGSNLAWYQQRSGQPPKLLIYGASTLASGVPSRFSGSGSGTEFTLTISGVQSADAATYFCQCSGYDITGVFPFGGGSEVVVK
notes: rabbit monoclonal antibody; also called P013.A.00014.D07
B8: P013.S.02.B.H02 (antibody, V domains shown)
VH: B7 VH with V3L, Y31C, G32A, E42K, A55S, K63N, A84T, S85E, S98F, A103T
VL: B7 VL with R39K, S40P, A84T, F87Y, I95T, K110R
notes: rabbit monoclonal antibody; also called P013.A.00015.B10
B9: P013.S.01.B.F05 (antibody, V domains shown)
VH: QSLEESGGRLVTPGGSLTLTCTVSGIDLSNYAMSWVRQAPGKGLEWIGSVISGGSTYYATWAKGRFTISKTSTTVDLKMTSLTTEDTATYFCARGCPGYNGDKYALDLWGPGTVVTVSS
VL: AFEMTQTPSSVSEPVGGTVTIKCQASQSIHNYLSWYQQKPGQRPKLLIYRASTLASGVPSRFKGSGSGTEFTLTISGVESADAATYYCQQGATSYDIDNAFGGGTEVVVK
notes: rabbit monoclonal antibody; also called P013.A.00087.C06

Each binder was assayed against T1, human IL-1RAcP on 293T/17-FR cells (assay: cell-based or functional assay).
B1 was tested, and the “functional reporter gene assay (% inhibition), 0.04 µg/mL mAb” value was 38%, the “functional reporter gene assay (% inhibition), 0.2 µg/mL mAb” value was 58% and the “functional reporter gene assay (% inhibition), 1 µg/mL mAb” value was 95%. For the same binder, the “functional reporter gene assay (% inhibition), 5 µg/mL mAb” value was 96% and the “primary supernatant functional assay (% inh.), NF-kB luciferase reporter” value was 97%. With B2 the “functional reporter gene assay (% inhibition), 0.04 µg/mL mAb” value was 47%, the “functional reporter gene assay (% inhibition), 0.2 µg/mL mAb” value was 89% and the “functional reporter gene assay (% inhibition), 1 µg/mL mAb” value was 97%. For the same binder, the “functional reporter gene assay (% inhibition), 5 µg/mL mAb” value was 98% and the “primary supernatant functional assay (% inh.), NF-kB luciferase reporter” value was 74%. In the case of B3, the “functional reporter gene assay (% inhibition), 0.04 µg/mL mAb” value is reported as 15%, the “functional reporter gene assay (% inhibition), 0.2 µg/mL mAb” value is reported as 51% and the “functional reporter gene assay (% inhibition), 1 µg/mL mAb” value is reported as 84%. The “functional reporter gene assay (% inhibition), 5 µg/mL mAb” value was 95% and the “primary supernatant functional assay (% inh.), NF-kB luciferase reporter” value was 99%. For B4, the “functional reporter gene assay (% inhibition), 0.04 µg/mL mAb” value was 52%, the “functional reporter gene assay (% inhibition), 0.2 µg/mL mAb” value was 81% and the “functional reporter gene assay (% inhibition), 1 µg/mL mAb” value was 93%. The “functional reporter gene assay (% inhibition), 5 µg/mL mAb” value was 96% and the “primary supernatant functional assay (% inh.), NF-kB luciferase reporter” value was 85%. In the case of B5, the “functional reporter gene assay (% inhibition), 0.04 µg/mL mAb” value is reported as 38%, the “functional reporter gene assay (% inhibition), 0.2 µg/mL mAb” value is reported as 51% and the “functional reporter gene assay (% inhibition), 1 µg/mL mAb” value is reported as 82%. The “functional reporter gene assay (% inhibition), 5 µg/mL mAb” value was 92% and the “primary supernatant functional assay (% inh.), NF-kB luciferase reporter” value was 89%. In the case of B6, the “functional reporter gene assay (% inhibition), 0.04 µg/mL mAb” value is reported as 77%, the “functional reporter gene assay (% inhibition), 0.2 µg/mL mAb” value is reported as 94% and the “functional reporter gene assay (% inhibition), 1 µg/mL mAb” value is reported as 98%. For the same binder, the “functional reporter gene assay (% inhibition), 5 µg/mL mAb” value was 99% and the “primary supernatant functional assay (% inh.), NF-kB luciferase reporter” value was 95%. In the case of B7, the “functional reporter gene assay (% inhibition), 0.04 µg/mL mAb” value is reported as 6%, the “functional reporter gene assay (% inhibition), 0.2 µg/mL mAb” value is reported as 0% and the “functional reporter gene assay (% inhibition), 1 µg/mL mAb” value is reported as 5%. For the same binder, the “functional reporter gene assay (% inhibition), 5 µg/mL mAb” value was 17% and the “primary supernatant functional assay (% inh.), NF-kB luciferase reporter” value was -39%. In the case of B8, the “functional reporter gene assay (% inhibition), 0.04 µg/mL mAb” value is reported as 25%, the “functional reporter gene assay (% inhibition), 0.2 µg/mL mAb” value is reported as -2% and the “functional reporter gene assay (% inhibition), 1 µg/mL mAb” value is reported as 28%. For the same binder, the “functional reporter gene assay (% inhibition), 5 µg/mL mAb” value was 28% and the “primary supernatant functional assay (% inh.), NF-kB luciferase reporter” value was 36%. In the case of B9, the “functional reporter gene assay (% inhibition), 0.04 µg/mL mAb” value is reported as 44%, the “functional reporter gene assay (% inhibition), 0.2 µg/mL mAb” value is reported as 54% and the “functional reporter gene assay (% inhibition), 1 µg/mL mAb” value is reported as 70%. The “functional reporter gene assay (% inhibition), 5 µg/mL mAb” value was 80% and the “primary supernatant functional assay (% inh.), NF-kB luciferase reporter” value was 89%.

These binders were tested against T2, rhIL-1RAcP/Fc Chimera (assay: ELISA, recombinant purified mAb).
Work on B1 yielded an EC50 of 0.046 µg/mL. B2 was tested, and the EC50 was 0.027 µg/mL. In the case of B3, the EC50 is reported as 0.255 µg/mL. Binder B5 has an EC50 of 0.144 µg/mL. B6 gave an EC50 of 0.225 µg/mL. B9 was tested, and the EC50 was 0.052 µg/mL.

These binders were tested against T2, rhIL-1RAcP/Fc Chimera (assay: ELISA, primary supernatant, coated hu-IL-1RAcP-Fc).
How it was run: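 Plates coated with 0.5 μg/mL Fc-tagged human IL-1RAcP; rabbit B-cell supernatant antibodies detected by peroxidase anti-rabbit IgG Fab2 and TMB, absorbance 450/620 nm. Parallel IL12Rβ1-Fc coating served as counterscreen to exclude tag binders.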
With B1 the “hu-IL1RaP ELISA (OD)” value was 3.6 OD. With B2 the “hu-IL1RaP ELISA (OD)” value was 3.4 OD. With B3 the “hu-IL1RaP ELISA (OD)” value was 3.4 OD. For B4, the “hu-IL1RaP ELISA (OD)” value was 3.3 OD. In the case of B5, the “hu-IL1RaP ELISA (OD)” value is reported as 3.2 OD. In the case of B6, the “hu-IL1RaP ELISA (OD)” value is reported as 3.3 OD. In the case of B7, the “hu-IL1RaP ELISA (OD)” value is reported as 1.4 OD. For B8, the “hu-IL1RaP ELISA (OD)” value was 3 OD. In the case of B9, the “hu-IL1RaP ELISA (OD)” value is reported as 3.6 OD.

These binders were tested against T3, mIL1RAcP-Fc (assay: ELISA, primary supernatant, coated mu-IL-1RAcP-Fc).
Binder B1 has a mu-IL1RaP ELISA (OD) of 0.3 OD. With B2 the “mu-IL1RaP ELISA (OD)” value was 0 OD. With B3 the “mu-IL1RaP ELISA (OD)” value was 0 OD. With B4 the “mu-IL1RaP ELISA (OD)” value was 0.1 OD. In the case of B5, the “mu-IL1RaP ELISA (OD)” value is reported as 0 OD. B6 was tested, and the “mu-IL1RaP ELISA (OD)” value was 0 OD. With B7 the “mu-IL1RaP ELISA (OD)” value was 1.1 OD. B8 was tested, and the “mu-IL1RaP ELISA (OD)” value was 0.8 OD. With B9 the “mu-IL1RaP ELISA (OD)” value was 1.2 OD.
